Where a chain is given by its changes, count along the chain named. Several values for one entry are separate records, joined by “and”; a condition that tells them apart may be missing. Identical values can stand only once. One block for each binder: values may come before it.
Molecular target: T1, recombinant human Siglec-8 extracellular domain (ECD) (human, UniProt Q9NYZ4 17-363)
T1 construct: extracellular domain; also called Siglec-8 ECD; full Siglec-8 ECD
Experiment: ELISA, coated Siglec-8 ECD
Procedure: Binding of recombinant human Siglec-8 extracellular domain (ECD) by chimeric 2E2 and chimeric 2C4 IgG1K antibodies was measured by ELISA. […] Three-fold serial dilutions of a chimeric antibody (ch2E2 or ch2C4) or mouse antibody (m2E2 or m2C4) in 0.2% BSA/TBS (starting concentration was 5000 ng/mL) was added to each coated well. The plate was incubated for 2 hours at room temperature and the wells were subsequently washed before addition of goat-anti-human Fc peroxidase conjugate (1:10000 dilution) or anti-mouse Fc peroxidase conjugate (1:30000 dilution) diluted in 0.2% BSA/TBS solution. The plate was incubated for 45 minutes at room temperature, followed by washing and addition of 30 μL K-blue HRP substrate (SkyBio Ltd) to each well. After incubation at room temperature for 15 minutes, the reaction was stopped by adding 10 μL of Red Stop solution (SkyBio Ltd) to each well. The optical density or the experimental samples was read at 650 nm using the ELISA reader PHERAStar FS (BMG Labtech).
The fully humanized antibody heavy and light chains were combined and compared with the chimeric antibody to determine if replacing the 4 Å and canonical framework residues and interface residues was sufficient to successfully humanize 2E2. Expi293 cells were co-transfected with combinations of different humanized light chain vectors in association with different humanized heavy chain vectors. Siglec-8 antigen was used to measure antibody binding by ELISA as described in Example 1.

T1 sequence (Q9NYZ4 17-363): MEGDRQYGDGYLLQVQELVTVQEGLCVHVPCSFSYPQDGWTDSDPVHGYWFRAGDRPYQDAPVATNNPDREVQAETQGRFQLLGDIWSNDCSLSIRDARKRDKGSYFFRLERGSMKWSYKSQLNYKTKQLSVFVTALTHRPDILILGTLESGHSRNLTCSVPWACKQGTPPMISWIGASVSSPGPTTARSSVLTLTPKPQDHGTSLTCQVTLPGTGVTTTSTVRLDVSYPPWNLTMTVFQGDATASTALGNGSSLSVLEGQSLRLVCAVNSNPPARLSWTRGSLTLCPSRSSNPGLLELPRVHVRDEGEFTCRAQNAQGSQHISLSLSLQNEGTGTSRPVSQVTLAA

EC50: 0.115 nM
B1: mouse 2C4 antibody (antibody, mouse IgG1, kappa)
heavy: QVQLKRASGPGLVAPSQSLSITCTVSGFSLTIYGAHWVRQPPGKGLEWLGVIWAGGSTNYNSALMSRLSISKDNSKSQVFLKINSLQTDDTALYYCARDGSSPYYYSMEYWGQGTSVTVSSAKTTPPSVYPLAPGSAAQTNSMVTLGCLVKGYFPEPVTVTWNSGSLSSGVHTFPAVLESDLYTLSSSVTVPSSPRPSETVTCNVAHPASSTKVDKKIVPRDCGCKPCICTVPEVSSVFIFPPKPKDVLTITLTPKVTCVVVDISKDDPEVQFSWFVDDVEVHTAQTQPREEQFNSTFRSVSELPIMHQDWLNGKEFKCRVNSAAFPAPIEKTISKTKGRPKAPQVYTIPPPKEQMAKDKVSLTCMITDFFPEDITVEWQWNGQPAENYKNTQPIMNTNGSYFVYSKLNVQKSNWEAGNTFTCSVLHEGLHNHHTEKSLSHSPG
light: EIILTQSPAIMSASPGEKVSITCSATSSVSYMHWFQQKPGTSPKLWIYSTSNLASGVPVRFSGSGSGTSYSLTISRMEAEDAATYYCQQRSSYPFTFGSGTKLEIKADAAPTVSIFPPSSEQLTSGGASVVCFLNNFYPKDINVKWKIDGSERQNGVLNSWTDQDSKDSTYSMSSTLTLTKDEYERHNSYTCEATHKTSTSPIVKSFNRNEC
notes: murine IgG1/kappa; also called mo2C4; m2C4

EC50: 0.085 nM and 0.058 nM
B2: HAKA (antibody, human IgG1, V domains shown)
VH: EVQLVESGGGLVQPGGSLRLSCAASGFSLTIYGAHWVRQAPGKGLEWVSVIWAGGSTNYNSALMSRFTISKDNSKNTVYLQMNSLRAEDTAVYYCARDGSSPYYYSMEYWGQGTTVTVSS
VL: EIVLTQSPATLSLSPGERATLSCSATSSVSYMHWFQQKPGQAPRLLIYSTSNLASGIPARFSGSGSGTDFTLTISSLEPEDFAVYYCQQRSSYPFTFGPGTKLDIK
notes: human IgG1/kappa

EC50: 0.033 nM
B3: HBKC (antibody, human IgG1, V domains shown)
VH: B2 VH with A24V, V48L, S49G, F67L, T68S
VL: B2 VL with V3I
notes: human IgG1/kappa

EC50: 0.273 nM
B4: HCKG (antibody, human IgG1, V domains shown)
VH: B2 VH with A24V
VL: B2 VL with F35Y
notes: human IgG1/kappa

EC50: 0.302 nM
B5: HEKG (antibody, human IgG1, V domains shown)
VH: B2 VH with S49G
VL: B2 VL with F35Y
notes: human IgG1/kappa

EC50: 0.069 nM and 0.065 nM
B6: HEKC (antibody, human IgG1, V domains shown)
VH: B2 VH with S49G
VL: B2 VL with V3I
notes: human IgG1/kappa

EC50: 0.059 nM
B7: HCKE (antibody, human IgG1, V domains shown)
VH: B2 VH with A24V
VL: B2 VL with I57V
notes: human IgG1/kappa

EC50: 0.059 nM and 0.07 nM
B8: HEKD (antibody, human IgG1, V domains shown)
VH: B2 VH with S49G
VL: B2 VL with L46W
notes: human IgG1/kappa

EC50: 0.061 nM
B9: HBKE (antibody, human IgG1, V domains shown)
VH: B2 VH with A24V, V48L, S49G, F67L, T68S
VL: B2 VL with I57V
notes: human IgG1/kappa

EC50: 0.065 nM
B10: HDKE (antibody, human IgG1, V domains shown)
VH: B2 VH with V48L
VL: B2 VL with I57V
notes: human IgG1/kappa

EC50: 0.066 nM and 0.051 nM
B11: HBKF (antibody, human IgG1, V domains shown)
VH: B2 VH with A24V, V48L, S49G, F67L, T68S
VL: B2 VL with F70Y
notes: human IgG1/kappa

EC50: 0.067 nM
B12: HDKA (antibody, human IgG1, V domains shown)
VH: B2 VH with V48L
VL: B2 VL
notes: human IgG1/kappa

EC50: 0.058 nM
B13: HCKC (antibody, human IgG1, V domains shown)
VH: B2 VH with A24V
VL: B2 VL with V3I
notes: human IgG1/kappa

EC50: 0.049 nM
B14: HCKD (antibody, human IgG1, V domains shown)
VH: B2 VH with A24V
VL: B2 VL with L46W
notes: human IgG1/kappa

EC50: 0.066 nM
B15: HAKC (antibody, human IgG1, V domains shown)
VH: B2 VH
VL: B2 VL with V3I
notes: human IgG1/kappa

EC50: 0.099 nM
B16: HFKB (antibody, human IgG1, V domains shown)
VH: B2 VH with F67L
VL: B2 VL with V3I, L46W, I57V, F70Y
notes: human IgG1/kappa

EC50: 0.056 nM
B17: HDKFmut (antibody, human IgG1, V domains shown)
VH: B2 VH with V48L
VL: B2 VL with F70Y, F95Y
notes: human IgG1/kappa

EC50: 0.113 nM
B18: HDKG (antibody, human IgG1, V domains shown)
VH: B2 VH with V48L
VL: B2 VL with F35Y
notes: human IgG1/kappa

EC50: 0.189 nM
B19: HAKG (antibody, human IgG1, V domains shown)
VH: B2 VH
VL: B2 VL with F35Y
notes: human IgG1/kappa

EC50: 0.063 nM and 0.057 nM
B20: HEKB (antibody, human IgG1, V domains shown)
VH: B2 VH with S49G
VL: B2 VL with V3I, L46W, I57V, F70Y
notes: human IgG1/kappa

EC50: 0.056 nM
B21: HBKB (antibody, human IgG1, V domains shown)
VH: B2 VH with A24V, V48L, S49G, F67L, T68S
VL: B2 VL with V3I, L46W, I57V, F70Y
notes: human IgG1/kappa

EC50: 0.048 nM
B22: HBKFmut (antibody, human IgG1, V domains shown)
VH: B2 VH with A24V, V48L, S49G, F67L, T68S
VL: B2 VL with F70Y, F95Y
notes: human IgG1/kappa

EC50: 0.212 nM
B23: HBKG (antibody, human IgG1, V domains shown)
VH: B2 VH with A24V, V48L, S49G, F67L, T68S
VL: B2 VL with F35Y
notes: human IgG1/kappa

EC50: 0.058 nM
B24: HAKD (antibody, human IgG1, V domains shown)
VH: B2 VH
VL: B2 VL with L46W
notes: human IgG1/kappa

EC50: 0.056 nM
B25: HCKA (antibody, human IgG1, V domains shown)
VH: B2 VH with A24V
VL: B2 VL
notes: human IgG1/kappa

EC50: 0.057 nM
B26: HDKC (antibody, human IgG1, V domains shown)
VH: B2 VH with V48L
VL: B2 VL with V3I
notes: human IgG1/kappa

EC50: 0.039 nM
B27: HBKD (antibody, human IgG1, V domains shown)
VH: B2 VH with A24V, V48L, S49G, F67L, T68S
VL: B2 VL with L46W
notes: human IgG1/kappa

EC50: 0.086 nM
B28: HAKFmut (antibody, human IgG1, V domains shown)
VH: B2 VH
VL: B2 VL with F70Y, F95Y
notes: human IgG1/kappa

EC50: 0.057 nM
B29: HDKF (antibody, human IgG1, V domains shown)
VH: B2 VH with V48L
VL: B2 VL with F70Y
notes: human IgG1/kappa

EC50: 0.106 nM
B30: HFKA (antibody, human IgG1, V domains shown)
VH: B2 VH with F67L
VL: B2 VL
notes: human IgG1/kappa

EC50: 0.078 nM
B31: HCKFmut (antibody, human IgG1, V domains shown)
VH: B2 VH with A24V
VL: B2 VL with F70Y, F95Y
notes: human IgG1/kappa

EC50: 0.078 nM and 0.062 nM
B32: HAKF (antibody, human IgG1, V domains shown)
VH: B2 VH
VL: B2 VL with F70Y
notes: human IgG1/kappa

EC50: 0.052 nM
B33: HAKE (antibody, human IgG1, V domains shown)
VH: B2 VH
VL: B2 VL with I57V
notes: human IgG1/kappa

EC50: 0.055 nM and 0.07 nM
B34: HBKA (antibody, human IgG1, V domains shown)
VH: B2 VH with A24V, V48L, S49G, F67L, T68S
VL: B2 VL
notes: human IgG1/kappa

EC50: 0.055 nM
B35: HDKB (antibody, human IgG1, V domains shown)
VH: B2 VH with V48L
VL: B2 VL with V3I, L46W, I57V, F70Y
notes: human IgG1/kappa

EC50: 0.05 nM
B36: HCKF (antibody, human IgG1, V domains shown)
VH: B2 VH with A24V
VL: B2 VL with F70Y
notes: human IgG1/kappa

EC50: 0.071 nM
B37: HAKB (antibody, human IgG1, V domains shown)
VH: B2 VH
VL: B2 VL with V3I, L46W, I57V, F70Y
notes: human IgG1/kappa

EC50: 0.048 nM
B38: HDKD (antibody, human IgG1, V domains shown)
VH: B2 VH with V48L
VL: B2 VL with L46W
notes: human IgG1/kappa

EC50: 0.065 nM
B39: HCKB (antibody, human IgG1, V domains shown)
VH: B2 VH with A24V
VL: B2 VL with V3I, L46W, I57V, F70Y
notes: human IgG1/kappa

Source: US20200054723A1 (ALLAKOS, published 2020)
